Source: PMC9638935 (Nucleic Acids Research, 2022)

Experiments:
Mex67 = molecular target: T1, Mex67 (S. cerevisiae, UniProt Q99257 1-599); assay: co-IP
T1 sequence (looked up): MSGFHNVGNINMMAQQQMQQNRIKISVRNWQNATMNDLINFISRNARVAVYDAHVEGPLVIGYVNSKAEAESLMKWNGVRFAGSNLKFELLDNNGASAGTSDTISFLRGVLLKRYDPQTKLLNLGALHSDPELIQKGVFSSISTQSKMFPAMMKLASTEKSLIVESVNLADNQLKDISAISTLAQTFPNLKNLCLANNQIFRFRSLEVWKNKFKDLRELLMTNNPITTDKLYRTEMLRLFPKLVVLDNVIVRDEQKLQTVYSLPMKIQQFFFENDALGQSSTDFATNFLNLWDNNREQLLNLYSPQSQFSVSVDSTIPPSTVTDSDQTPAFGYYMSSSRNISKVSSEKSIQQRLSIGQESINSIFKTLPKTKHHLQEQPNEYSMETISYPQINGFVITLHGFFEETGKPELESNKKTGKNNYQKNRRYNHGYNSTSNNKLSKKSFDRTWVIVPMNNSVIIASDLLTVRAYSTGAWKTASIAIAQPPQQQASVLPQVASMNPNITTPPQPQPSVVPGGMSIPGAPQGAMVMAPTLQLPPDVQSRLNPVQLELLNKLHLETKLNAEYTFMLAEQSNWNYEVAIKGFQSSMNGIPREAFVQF

[1] = molecular target: T2, Cbp80 (tag not named for Figures 4C-D and 5D) (S. cerevisiae, UniProt P34160 1-861); assay: co-IP
T2 sequence (looked up): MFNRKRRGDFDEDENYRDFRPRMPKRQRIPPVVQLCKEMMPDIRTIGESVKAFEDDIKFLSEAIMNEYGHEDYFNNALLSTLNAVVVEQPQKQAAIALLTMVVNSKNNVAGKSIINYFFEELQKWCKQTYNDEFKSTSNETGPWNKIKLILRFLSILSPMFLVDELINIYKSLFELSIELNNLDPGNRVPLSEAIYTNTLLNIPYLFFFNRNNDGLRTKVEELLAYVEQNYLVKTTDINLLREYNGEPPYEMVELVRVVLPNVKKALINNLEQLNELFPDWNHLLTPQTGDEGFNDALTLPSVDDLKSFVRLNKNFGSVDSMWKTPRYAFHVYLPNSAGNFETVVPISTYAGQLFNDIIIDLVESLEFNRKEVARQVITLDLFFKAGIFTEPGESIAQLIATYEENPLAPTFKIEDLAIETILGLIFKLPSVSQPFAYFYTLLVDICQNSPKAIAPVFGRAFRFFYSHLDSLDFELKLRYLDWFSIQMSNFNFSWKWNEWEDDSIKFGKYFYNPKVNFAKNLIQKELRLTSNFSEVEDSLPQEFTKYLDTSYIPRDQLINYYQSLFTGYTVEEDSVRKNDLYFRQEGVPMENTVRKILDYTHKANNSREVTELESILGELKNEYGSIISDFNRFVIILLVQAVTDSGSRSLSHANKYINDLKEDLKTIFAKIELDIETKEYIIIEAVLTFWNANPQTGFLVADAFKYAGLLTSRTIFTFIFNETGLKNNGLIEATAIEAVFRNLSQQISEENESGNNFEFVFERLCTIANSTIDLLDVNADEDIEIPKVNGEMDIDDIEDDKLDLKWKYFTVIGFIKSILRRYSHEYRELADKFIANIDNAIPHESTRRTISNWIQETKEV

- drop of the co-IP signal in cet1-2 and rat1-1 cells relative to wild type (Mex67): ~20%
- co-IP signal in cet1-2 relative to wild type [1]: ~60%
B1: Npl3 (natural protein, S. cerevisiae, UniProt Q01560 1-414, looked up)
chain: MSEAQETHVEQLPESVVDAPVEEQHQEPPQAPDAPQEPQVPQESAPQESAPQEPPAPQEQNDVPPPSNAPIYEGEESHSVQDYQEAHQHHQPPEPQPYYPPPPPGEHMHGRPPMHHRQEGELSNTRLFVRPFPLDVQESELNEIFGPFGPMKEVKILNGFAFVEFEEAESAAKAIEEVHGKSFANQPLEVVYSKLPAKRYRITMKNLPEGCSWQDLKDLARENSLETTFSSVNTRDFDGTGALEFPSEEILVEALERLNNIEFRGSVITVERDDNPPPIRRSNRGGFRGRGGFRGGFRGGFRGGFSRGGFGGPRGGFGGPRGGYGGYSRGGYGGYSRGGYGGSRGGYDSPRGGYDSPRGGYSRGGYGGPRNDYGPPRGSYGGSRGGYDGPRGDYGPPRDAYRTRDAPRERSPTR
